Test results as given in article PMC3858272, “Construction and Application of Elastin Like Polypeptide Containing IL-4 Receptor Targeting Peptide” (PLoS ONE, 2013).

Assays:
IL-4Rα (CD124) = biological target: T1, IL-4Rα (CD124) (UniProt P24394 26-232); assay: SPR; IL-4Rα immobilised by amine coupling on a carboxymethyl dextran chip (2000±400 RU); AP1 peptide 3.125 to 50 µM, [AP1-V12]6 125 nM to 1 µM, [V14]6 1 µM flowed for 3 min at 25 µL/min; 25°C; kinetic fits with Scrubber 2; settings: both partners purified
T1 construct: interleukin-4 receptor alpha chain (CD124), recombinant protein bought from Sino Biological; No catalogue number is printed; also called IL-4 receptor; source: bought: Sino Biological
T1 sequence (looked up): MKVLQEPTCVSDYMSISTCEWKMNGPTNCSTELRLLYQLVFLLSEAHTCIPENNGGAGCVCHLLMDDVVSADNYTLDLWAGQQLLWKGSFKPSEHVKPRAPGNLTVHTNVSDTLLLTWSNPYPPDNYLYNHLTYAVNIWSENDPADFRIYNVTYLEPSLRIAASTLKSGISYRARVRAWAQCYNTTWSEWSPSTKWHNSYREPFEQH

[1] = biological target: T2, IL-4 receptor on H226 and MDA-MB-231 cancer cells (human (endogenous in H226 and …, UniProt P24394 26-825)); assay: flow cytometry on cells; 10 µM Alexa 488-labelled polymer or peptide, 1 h at 4°C, on H226 and MDA-MB-231 cells (IL-4R highly expressed) after blocking with 2% BSA; H460 cells as IL-4R negative control; settings: one partner purified
T2 construct: interleukin-4 receptor as expressed on the surface of human cancer cell lines; On cells the alpha chain may stand with other receptor chains; source: endogenous, on H226 and MDA-MB-231 cells
T2 sequence (looked up): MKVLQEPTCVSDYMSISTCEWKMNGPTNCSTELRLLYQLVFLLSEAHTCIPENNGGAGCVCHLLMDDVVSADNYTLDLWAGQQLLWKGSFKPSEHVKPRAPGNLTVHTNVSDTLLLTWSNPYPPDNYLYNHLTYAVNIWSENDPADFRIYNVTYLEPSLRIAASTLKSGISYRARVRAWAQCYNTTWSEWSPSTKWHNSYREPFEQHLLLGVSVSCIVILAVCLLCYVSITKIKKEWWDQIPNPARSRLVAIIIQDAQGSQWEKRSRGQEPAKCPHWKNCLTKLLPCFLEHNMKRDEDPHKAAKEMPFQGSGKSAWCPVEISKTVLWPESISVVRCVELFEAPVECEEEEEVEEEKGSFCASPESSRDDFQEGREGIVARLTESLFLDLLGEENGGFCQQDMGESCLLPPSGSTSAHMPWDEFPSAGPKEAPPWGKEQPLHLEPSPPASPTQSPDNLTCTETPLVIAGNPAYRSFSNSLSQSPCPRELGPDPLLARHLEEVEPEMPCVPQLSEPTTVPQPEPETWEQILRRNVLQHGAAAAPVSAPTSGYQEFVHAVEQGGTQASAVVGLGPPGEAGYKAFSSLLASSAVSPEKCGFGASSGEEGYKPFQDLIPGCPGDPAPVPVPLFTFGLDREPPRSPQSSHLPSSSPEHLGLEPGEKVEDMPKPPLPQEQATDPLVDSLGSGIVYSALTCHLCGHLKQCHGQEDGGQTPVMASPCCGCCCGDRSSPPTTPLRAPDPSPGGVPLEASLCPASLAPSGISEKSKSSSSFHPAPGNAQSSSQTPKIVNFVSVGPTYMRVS

B1: AP1 peptide (peptide)
peptide: CRKRLDRN
notes: peptide found earlier by phage display screening, termed AP1; also called free AP1 peptide
In the case of B1, the koff (IL-4Rα (CD124)) is reported as 0.17 s⁻¹ and the kon (IL-4Rα (CD124)) is reported as 35 M⁻¹ s⁻¹.

B2: [AP1-V12]6 polymer, SGPG[VGRKRLDRNG(VGVPG)12]6WPC (designed binder)
chain: SGPGVGRKRLDRNGVGVPGVGVPGVGVPGVGVPGVGVPGVGVPGVGVPGVGVPGVGVPGVGVPGVGVPGVGVPGVGRKRLDRNGVGVPGVGVPGVGVPGVGVPGVGVPGVGVPGVGVPGVGVPGVGVPGVGVPGVGVPGVGVPGVGRKRLDRNGVGVPGVGVPGVGVPGVGVPGVGVPGVGVPGVGVPGVGVPGVGVPGVGVPGVGVPGVGVPGVGRKRLDRNGVGVPGVGVPGVGVPGVGVPGVGVPGVGVPGVGVPGVGVPGVGVPGVGVPGVGVPGVGVPGVGRKRLDRNGVGVPGVGVPGVGVPGVGVPGVGVPGVGVPGVGVPGVGVPGVGVPGVGVPGVGVPGVGVPGVGRKRLDRNGVGVPGVGVPGVGVPGVGVPGVGVPGVGVPGVGVPGVGVPGVGVPGVGVPGVGVPGVGVPGWPC
notes: The vector's insert begins with an ATG; also called [AP1-V12]6 protein; targeted [AP1-V12]6 polymer; source: E. coli BL21 (DE3), purified (four rounds of inverse transition cycling)
Work on B2 yielded a koff (IL-4Rα (CD124)) of 0.00125 s⁻¹ and a kon (IL-4Rα (CD124)) of 5810 M⁻¹ s⁻¹.

B3: Alexa 488-labeled [AP1-V12]6 (designed binder)
chain: SGPGVGRKRLDRNGVGVPGVGVPGVGVPGVGVPGVGVPGVGVPGVGVPGVGVPGVGVPGVGVPGVGVPGVGVPGVGRKRLDRNGVGVPGVGVPGVGVPGVGVPGVGVPGVGVPGVGVPGVGVPGVGVPGVGVPGVGVPGVGVPGVGRKRLDRNGVGVPGVGVPGVGVPGVGVPGVGVPGVGVPGVGVPGVGVPGVGVPGVGVPGVGVPGVGVPGVGRKRLDRNGVGVPGVGVPGVGVPGVGVPGVGVPGVGVPGVGVPGVGVPGVGVPGVGVPGVGVPGVGVPGVGRKRLDRNGVGVPGVGVPGVGVPGVGVPGVGVPGVGVPGVGVPGVGVPGVGVPGVGVPGVGVPGVGVPGVGRKRLDRNGVGVPGVGVPGVGVPGVGVPGVGVPGVGVPGVGVPGVGVPGVGVPGVGVPGVGVPGVGVPGWPC
modifications: Alexa Fluor 488-C5 maleimide on the C-terminal Cys residue
notes: as m1; The labelled form of m1, used on cells (flow cytometry, confocal microscopy); also called Alexa-labeled [AP1-V12]6; targeted [AP1-V12]6 polymer; source: E. coli BL21 (DE3), purified (four rounds of inverse transition cycling), then labelled
With B3 the “fold cell attachment, H226 cells over H460 cells” value [1] was 5.9 ± 1.6 fold and the “fold cell attachment, MDA-MB-231 cells over H460 cells” value [1] was 5.6 ± 1.3 fold.
